Measured values reported in patent US20140154252A1.

Columns and labels:
CD20 (human) [1] = target: CD20 (human) (UniProt P11836); test: competition flow cytometry on Ramos B-cells; competitor PE anti-CD20 antibody [upper graph (Detection of PE-CD20 mAb]
CD37 (human) [2] = target: T1, CD37 (human) (UniProt P11049); test: competition flow cytometry on Ramos B-cells; competitor FITC anti-CD37 antibody [lower graph (Detection of FITC-CD37 mAb]
T1 sequence (looked up): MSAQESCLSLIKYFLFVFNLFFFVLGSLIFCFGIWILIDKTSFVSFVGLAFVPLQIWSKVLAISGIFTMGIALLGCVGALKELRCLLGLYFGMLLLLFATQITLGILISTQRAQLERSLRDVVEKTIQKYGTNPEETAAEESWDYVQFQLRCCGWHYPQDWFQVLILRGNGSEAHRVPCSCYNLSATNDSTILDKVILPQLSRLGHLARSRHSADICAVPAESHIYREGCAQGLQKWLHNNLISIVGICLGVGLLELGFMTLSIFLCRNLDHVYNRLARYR

CD37 (human) [3] = target: T1, CD37 (human); test: cell-based or functional assay
CD20 (human) [4] = target: CD20 (human) (UniProt P11836); test: cell-based or functional assay

Chain of CD20 (human) (P11836 whole entry): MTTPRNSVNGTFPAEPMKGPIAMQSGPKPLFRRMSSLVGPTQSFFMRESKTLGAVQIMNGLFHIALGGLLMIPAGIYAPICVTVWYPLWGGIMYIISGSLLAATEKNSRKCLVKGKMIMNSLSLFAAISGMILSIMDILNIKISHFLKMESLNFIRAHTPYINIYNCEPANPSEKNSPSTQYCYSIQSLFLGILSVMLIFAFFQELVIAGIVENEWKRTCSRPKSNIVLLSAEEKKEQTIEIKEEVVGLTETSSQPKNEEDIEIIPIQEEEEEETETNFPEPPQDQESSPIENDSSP

**Q.** Which results are given for “CD20×CD37 bispecific scorpion (015×016) (bispecific antibody)”?
**A.** IC50 (read off the curve) (CD20 (human) [1]): 5000 pM; IC50 (read off the curve) (CD37 (human) [2]): 2000 pM; IC50 (nM), direct growth inhibition of DoHH2 cells, 96 h, ATP detection (CD37 (human) [3]): 0.05 nM; IC50 (nM), direct growth inhibition of SU-DHL-6 cells, 96 h, ATP detection (CD37 (human) [3]): 0.05 nM; IC50 (nM), direct growth inhibition of DoHH2 cells, 96 h, ATP detection (CD20 (human) [4]): 0.05 nM; IC50 (nM), direct growth inhibition of SU-DHL-6 cells, 96 h, ATP detection (CD20 (human) [4]): 0.05 nM
